Values quoted from earlier work, collected in publication PMC12250766.
Where two headings read alike, the source gives them in different places. Values belong to the substance of their own block, whether it stands above or below them.

Columns and labels:
PSGL-1 (Homo sapiens) [1] = biological target: PSGL-1 (Homo sapiens) (UniProt Q14242)
PSGL-1 (Homo sapiens) [2] = biological target: PSGL-1 (Homo sapiens) (UniProt Q14242); remark: listed apart in the source
[3] = biological target: PSGL-1 model glycosulfopeptide (Homo sapiens) (UniProt Q14242)
[4] = biological target: PSGL-1 model glycosulfopeptide (Homo sapiens) (UniProt Q14242); remark: listed apart in the source
[5] = biological target: PSGL-1 model glycopeptide (Homo sapiens) (UniProt Q14242)

Kd (PSGL-1 (Homo sapiens) [1]): 15 µM
Substance: E-selectin (from UniProt P16581)

Kd (PSGL-1 (Homo sapiens) [2]): 5 µM
Substance: L-selectin (from UniProt P14151)

Kd [3]: 6 µM
Kd [4]: 0.65 µM
Kd [5]: 25 µM
Substance: P-selectin (from UniProt P16109)
